Measured values published in patent US20250009878A1.

Molecular target: WT MCT1/BSG-2 complex (mouse) (mouse) (UniProt P53986)
Assay: cell-based or functional assay

UniProt P53986, sequence (P53986 whole entry, chain 1 of 2): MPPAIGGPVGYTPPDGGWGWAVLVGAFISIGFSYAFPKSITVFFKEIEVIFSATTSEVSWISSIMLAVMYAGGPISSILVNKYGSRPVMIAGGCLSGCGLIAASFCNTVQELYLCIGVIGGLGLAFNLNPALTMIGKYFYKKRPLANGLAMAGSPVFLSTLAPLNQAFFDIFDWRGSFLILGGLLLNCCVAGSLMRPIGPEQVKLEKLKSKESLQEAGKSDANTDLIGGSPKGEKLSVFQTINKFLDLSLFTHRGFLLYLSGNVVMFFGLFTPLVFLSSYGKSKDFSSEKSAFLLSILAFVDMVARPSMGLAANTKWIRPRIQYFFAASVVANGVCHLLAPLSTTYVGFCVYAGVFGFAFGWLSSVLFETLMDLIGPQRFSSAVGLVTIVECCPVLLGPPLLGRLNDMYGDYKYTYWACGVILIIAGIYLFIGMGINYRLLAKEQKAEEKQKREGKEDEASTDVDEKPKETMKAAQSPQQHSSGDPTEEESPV
UniProt P53986, sequence (P18572 other isoform, or with tags, fused parts or gaps, chain 2 of 2, further chain): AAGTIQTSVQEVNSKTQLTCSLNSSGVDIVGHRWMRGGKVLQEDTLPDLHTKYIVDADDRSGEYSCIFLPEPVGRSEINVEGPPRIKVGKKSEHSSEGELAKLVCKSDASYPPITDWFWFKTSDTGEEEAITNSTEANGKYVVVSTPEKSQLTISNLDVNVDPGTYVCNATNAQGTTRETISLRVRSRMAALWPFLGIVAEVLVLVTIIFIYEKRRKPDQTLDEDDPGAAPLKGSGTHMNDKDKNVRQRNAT

decrease in transport activity (H+ influx, HPTS proteoliposome flux assay): 75%
B1: WZHAb10 (antibody, human IgG1, kappa, V domains shown)
VH: QVQLVQSGAEVKKPGASVKVSCKASGYTFTNYWIHWVRQAPGQGLEWMGMIHPNSGSINYNEKFKTRVTMTRDTSTSTVYMELSSLRSEDTAVYYCARVGSGSLDYWGQGTLVTVSS
VL: EIVLTQSPATLSLSPGERATLSCRASQSISDYLHWYQQKPGQAPRLLIKYVSQSISGIPARFSGSGSGTYFTLTISSLEPEDVAVYYCQNGEEAPYTFGQGTKLEIKR
